Data from patent publication US20100015650.

T1: BRB1 tyrosine kinase substrate peptide
T1 chain: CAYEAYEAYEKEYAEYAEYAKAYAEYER

B1: ROS (protein)
chain: HRRLKNQKSAKEGVTVLINEDKELAELRGLAAGVGLANACYAIHTLPTQEEIENLPAFPREKLTLRLLLGSGAFGEVYEGTAVDILGVGSGEIKVAVKTLKKGSTDQEKIEFLKEAHLMSKFNHPNILKQLGVCLLNEPQYIILELMEGGDLLTYLRKARMATFYGPLLTLVDLVDLCVDISKGCVYLERMHFIHRDLAARNCLVSVKDYTSPRIVKIGDFGLARDIYKNDYYRKRGEGLLPVRWMAPESLMDGIFTTQSDVWSFGILIWEILTLGHQPYPAHSNLDVLNYVQTGGRLEPPRNCPDDLWNLMTQCWAQEPDQRPTFHRIQDQLQLFRNFFLNSIYKSRDEANNSGVINESFEGEDGDVICLNSDDIMPVALMETKNREGLNYMVLATECGQGEEKSEGPLGSQESESCGLRKEEKEPHADKDFCQEKQVAYCPSGKPEGLNYACLTHSGYGDGSD
B2: TIE2 (protein)
chain: QLKRANVQRRMAQAFQNVREEPAVQFNSGTLALNRKVKNNPDPTIYPVLDWNDIKFQDVIGEGNFGQVLKARIKKDGLRMDAAIKRMKEYASKDDHRDFAGELEVLCKLGHHPNIINLLGACEHRGYLYLAIEYAPHGNLLDFLRKSRVLETDPAFAIANSTASTLSSQQLLHFAADVARGMDYLSQKQFIHRDLAARNILVGENYVAKIADFGLSRGQEVYVKKTMGRLPVRWMAIESLNYSVYTTNSDVWSYGVLLWEIVSLGGTPYCGMTCAELYEKLPQGYRLEKPLNCDDEVYDLMRQCWREKPYERPSFAQILVSLNRMLEERKTYVNTTLYEKFTYAGIDCSAEEAA
B3: TYRO3 (protein)
chain: LRKRRKETRFGQAFDSVMARGEPAVHFRAARSFNRERPERIEATLDSLGISDELKEKLEDVLIPEQQFTLGRMLGKGEFGSVREAQLKQEDGSFVKVAVKMLKADIIASSDIEEFLREAACMKEFDHPHVAKLVGVSLRSRAKGRLPIPMVILPFMKHGDLHAFLLASRIGENPFNLPLQTLIRFMVDIACGMEYLSSRNFIHRDLAARNCMLAEDMTVCVADFGLSRKIYSGDYYRQGCASKLPVKWLALESLADNLYTVQSDVWAFGVTMWEIMTRGQTPYAGIENAEIYNYLIGGNRLKQPPECMEDVYDLMYQCWSADPKQRPSFTCLRMELENILGQLSVLSASQDPLYINIERAEEPTAGGSLELPGRDQPYSGAGDGSGMGAVGGTPSDCRYILTPGGLAEQPGQAEHQPESPLNETQRLLLLQQGLLPHSSC
B4: BTK (protein)
chain: AAVILESIFLKRSQQKKKTSPLNFKKRLFLLTVHKLSYYEYDFERGRRGSKKGSIDVEKITCVETVVPEKNPPPERQIPRRGEESSEMEQISIIERFPYPFQVVYDEGPLYVFSPTEELRKRWIHQLKNVIRYNSDLVQKYHPCFWIDGQYLCCSQTAKNAMGCQILENRNGSLKPGSSHRKTKKPLPPTPEEDQILKKPLPPEPAAAPVSTSELKKVVALYDYMPMNANDLQLRKGDEYFILEESNLPWWRARDKNGQEGYIPSNYVTEAEDSIEMYEWYSKHMTRSQAEQLLKQEGKEGGFIVRDSSKAGKYTVSVFAKSTGDPQGVIRHYVVCSTPQSQYYLAEKHLFSTIPELINYHQHNSAGLISRLKYPVSQQNKNAPSTAGLGYGSWEIDPKDLTFLKELGTGQFGVVKYGKWRGQYDVAIKMIKEGSMSEDEFIEEAKVMMNLSHEKLVQLYGVCTKQRPIFIITEYMANGCLLNYLREMRHRFQTQQLLEMCKDVCEAMEYLESKQFLHRDLAARNCLVNDQGVVKVSDFGLSRYVLDDEYTSSVGSKFPVRWSPPEVLMYSKFSSKSDIWAFGVLMWEIYSLGKMPYERFTNSETAEHIAQGLRLYRPHLASEKVYTIMYSCWHEKADERPTFKILLSNILDVMDEES

Molecular target: T1, BRB1 tyrosine kinase substrate peptide

Protein	Signal to Noise ratio with BRB1 Peptide (TR-FRET kinase assay; kinase 0.25 nM)	Signal to Noise ratio with BRB1 Peptide (TR-FRET kinase assay; kinase 0.5 nM)
B1	24.5	
B2		17.7
B3	6.1	
B4	6.8	
